These results are taken from PMC9537153 (Nature Communications, 2022).

For experiment [1], the target named is T1, p19, C-terminal 19 kDa fragment of Merozoite Surface Protein 1 (MSP-1), Plasmodium falciparum 3D7 allele, … (Plasmodium falciparum 3D7).
T1 chain: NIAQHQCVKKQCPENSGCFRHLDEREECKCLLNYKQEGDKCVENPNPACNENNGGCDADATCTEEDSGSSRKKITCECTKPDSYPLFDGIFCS

The target in experiment [2] is T2, full-length Merozoite Surface Protein 1 (MSP-1), Plasmodium falciparum 3D7 allele, non-glycosylated, His6 (Plasmodium falciparum 3D7, UniProt Q8I0U8).
T2 sequence (Q8I0U8 whole entry, looked up): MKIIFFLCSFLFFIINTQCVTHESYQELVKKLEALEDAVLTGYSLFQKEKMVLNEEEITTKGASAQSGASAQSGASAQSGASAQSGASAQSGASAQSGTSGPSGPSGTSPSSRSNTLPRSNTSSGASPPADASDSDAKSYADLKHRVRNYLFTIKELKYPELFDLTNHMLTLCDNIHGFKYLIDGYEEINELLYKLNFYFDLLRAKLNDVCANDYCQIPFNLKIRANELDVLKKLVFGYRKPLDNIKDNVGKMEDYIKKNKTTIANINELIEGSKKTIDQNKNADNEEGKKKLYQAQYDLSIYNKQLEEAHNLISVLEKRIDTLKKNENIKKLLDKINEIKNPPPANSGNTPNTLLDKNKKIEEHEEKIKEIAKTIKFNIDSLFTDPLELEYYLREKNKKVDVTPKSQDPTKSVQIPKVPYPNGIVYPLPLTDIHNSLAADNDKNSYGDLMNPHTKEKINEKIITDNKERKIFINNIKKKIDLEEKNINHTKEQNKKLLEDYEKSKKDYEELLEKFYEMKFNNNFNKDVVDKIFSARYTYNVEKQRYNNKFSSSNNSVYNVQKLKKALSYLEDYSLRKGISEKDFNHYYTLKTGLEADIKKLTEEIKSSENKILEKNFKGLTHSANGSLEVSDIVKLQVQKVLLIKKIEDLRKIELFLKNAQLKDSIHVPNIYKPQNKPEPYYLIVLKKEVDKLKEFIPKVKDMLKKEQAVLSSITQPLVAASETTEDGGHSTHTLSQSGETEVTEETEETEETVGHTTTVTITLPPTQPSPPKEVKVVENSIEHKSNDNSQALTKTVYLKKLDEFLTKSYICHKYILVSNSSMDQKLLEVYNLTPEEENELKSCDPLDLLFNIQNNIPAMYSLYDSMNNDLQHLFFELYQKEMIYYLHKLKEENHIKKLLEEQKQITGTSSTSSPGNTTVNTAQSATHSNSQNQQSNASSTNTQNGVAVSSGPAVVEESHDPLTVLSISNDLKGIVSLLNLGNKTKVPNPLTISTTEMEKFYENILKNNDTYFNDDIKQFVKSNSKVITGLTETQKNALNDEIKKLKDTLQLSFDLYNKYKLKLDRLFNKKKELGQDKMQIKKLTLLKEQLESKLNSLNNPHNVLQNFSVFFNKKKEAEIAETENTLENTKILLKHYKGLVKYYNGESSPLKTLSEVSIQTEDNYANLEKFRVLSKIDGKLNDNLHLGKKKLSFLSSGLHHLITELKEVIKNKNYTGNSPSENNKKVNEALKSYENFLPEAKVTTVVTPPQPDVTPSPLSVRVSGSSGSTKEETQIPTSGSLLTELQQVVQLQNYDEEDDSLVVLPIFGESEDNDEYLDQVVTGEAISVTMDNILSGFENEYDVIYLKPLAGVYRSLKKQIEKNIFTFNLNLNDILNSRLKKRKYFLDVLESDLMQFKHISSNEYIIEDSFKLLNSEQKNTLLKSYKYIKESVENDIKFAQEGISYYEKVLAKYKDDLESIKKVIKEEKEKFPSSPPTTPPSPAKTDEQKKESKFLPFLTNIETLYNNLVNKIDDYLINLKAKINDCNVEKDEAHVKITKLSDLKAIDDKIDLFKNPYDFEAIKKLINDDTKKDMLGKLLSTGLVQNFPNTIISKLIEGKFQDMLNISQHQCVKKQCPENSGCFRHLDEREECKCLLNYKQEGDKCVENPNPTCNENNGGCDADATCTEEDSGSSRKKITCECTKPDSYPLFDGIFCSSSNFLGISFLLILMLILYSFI
Experiment [3] concerns the target T2, full-length Merozoite Surface Protein 1 …. Description: ELISA. The settings on record: both partners purified. For orientation: In an ELISA, binding on a coated surface is turned into a signal by an enzyme label.
In experiment [4] the target is T3, biotinylated p19 (3D7 allele, non-glycosylated) with C-terminal Avi-tag and His6 tag (Plasmodium falciparum 3D7, enzymatically biotinylated on a C-terminal AviTag).
T3 chain: T1 chain
Description: BLI. The settings on record: both partners purified.

Where two headings read alike, the source gives them in different places.

B1: 42C5 (antibody, V domains shown)
VH: EVQLVESGGGVVQPGGSLRLSCAASGFIFSSYSMHWVRQAPGKGLEWVAFIRYDGNRKYYGDSVKGRFTVSRDNSMDTLSLHMTNLRPEDTAIYYCARVGWTWVSEPVDVWGEGATVTVAS
VL: QSVLTQPPSASGTPGQGVSISCSGSRSNVGTNYVYWYQQVPGTAPKLLILRNTQRPSGVPDRFSGSKSGSSASLAISGLRSADEGDYYCAVWDSNLDHVVFGGGTKVTVL
A word on the Kd: it is the free concentration of one partner at which half of the binding sites on the other are occupied at equilibrium, for simple one-to-one binding. Low values mean a tighter complex, high ones a looser complex. For the molecule B1, in experiment [1], the Kd turned out to be 3.29 nM. The binding result in experiment [2] is reported as “binds”.

B2: 42D7 (antibody, V domains shown)
VH: EVQMVESGGGVVRPGGSLGLSCTASGFTFSNFGIYWVRQAPGKGLEWVAFTRYDGRNKYYGDSVKGRFTISRDNSKNTLYLQMNRLRHEDTGTYYCAKVGATWASEPMDVWGKGTTVMVSS
VL: QSVLTQPPSVSGTPGQRVTIYCSGSTSNVGTNFVYWYKQLPGAAPKLLISRNTQRPSGVPDRFSGSKSGTSAFLAISGLRSEDEASYHCSVWDGDLTGLVFGGGTKLTVL
In turn, B2 gave a Kd in experiment [1] of 6.2 nM. Moreover, in experiment [2], the binding result is reported as “binds”.

B3: 42C11 recombinant human IgG1 (hmAb 42C11) (antibody, V domains shown)
VH: QVQLVESGGGVVQPGGSLRLSCAASGFIFSSYSMHWVRQAPGKGLEWVAFIRYDGRREYYADSVKGRFTVSRDNIMNTVFLQMNNLRPEDTATYYCAKVGWTWVSEPADVWGEGATVTVSS
VL: QSVLTQPPSTSGTPGQGVTISCSGSRSNVGTNYVYWYQQIPGRAPKLLINRNTQRPSGVPVRFSGSKSGTTAFLAITGLRSEDEADYFCAVWDGDLSGVIFGGGTKVTVL
notes: IgG1; source: Expi293F cells, heavy- and light-chain plasmids co-transfected 1:1, purified (Protein A agarose, SEC)
Consider B3, for which the binding result in experiment [3] is “binds”.

B4: 42C11 Fab (naturally acquired human monoclonal antibody to p19) (Fab, V domains shown)
VH: B3 VH
VL: B3 VL
notes: source: Expi293F cells, transfected, purified from supernatant (Ni Sepharose Excel, SEC)
One may read the koff as a measure of how fast the partners let go of each other. Usually kon stands for the second-order rate constant of association. A higher kon goes with faster complex formation. Turning to B4, in experiment [4], the Kd was found to be 1.84 nM, the koff was 0.00047 s⁻¹ and the kon was determined as 255000 M⁻¹ s⁻¹.

B5: 42A9 (antibody, V domains shown)
VH: QVQVVESGGGVVQPGGSLTLSCRASGFIFSDYGLHWVRQPPGKGLEWVALINYDGRNKYYADSVRGRFTISRDNSKNTLSLQMSSLRSGDTAIYFCARVGAKWASEPMDVWGRGTTVTVSS
VL: QSVLTQPPSASGTPGQRVTISCSGSTSNVGTNFVYWYHQRPGTAPKLLIYRNDERPSGVPDRISGSKSGASASLAISGLRSEDEGDYHCSAWDGSLRRLVFGGGTKLTVL
In turn, B5 came in with a Kd in experiment [1] of 0.73 nM. In addition, the binding result in experiment [2] is on record as “binds”.
